Data as given in patent US20240174720A1.

Experiments:
[1] = molecular target: Purified human IgG (injectable IVIG) (human); test: dynamic binding capacity at 10% breakthrough after 35 h in 0.5 M NaOH; ligand on agarose column; human IgG 2.5 mg/ml
[2] = molecular target: Purified human IgG (injectable IVIG) (human); test: dynamic binding capacity at 10% breakthrough after 24 h in 0.5 M NaOH; ligand on agarose column; human IgG 2.5 mg/ml
[3] = molecular target: Purified human IgG (injectable IVIG) (human); test: dynamic binding capacity at 10% breakthrough; ligand on agarose in 1 ml column; human IgG 2.5 mg/ml; 4 min residence time
[4] = molecular target: Purified human IgG (injectable IVIG) (human); test: DBC after 0.5 M NaOH soaking relative to DBC before soaking; agarose column; human IgG

Row | DBC after 35 h soaking [1] | DBC after 24 h soaking [2] | DBC before NaOH soaking [3] | Percentage of remaining DBC [4] | Substance
1 | 39 mg/mL | 47 mg/mL | 58 mg/mL | 67.2% | Z domain with N52L mutation Ig-binding affinity ligand (designed binder)
2 | 41 mg/mL | 52 mg/mL | 63 mg/mL | 65.1% | Z domain with N52V mutation Ig-binding affinity ligand (designed binder)
3 | 44 mg/mL | 52 mg/mL | 62 mg/mL | 70.9% | Z domain with S41A mutation Ig-binding affinity ligand (designed binder)
4 | 42 mg/mL | 50 mg/mL | 59 mg/mL | 71.2% | Z domain with S41A/N52L mutations Ig-binding affinity ligand (designed binder)
5 | 53 mg/mL | 59 mg/mL | 65 mg/mL | 81.5% | Z domain with S41A/N52V mutations Ig-binding affinity ligand (designed binder)
6 | 43 mg/mL | 53 mg/mL | 65 mg/mL | 66.1% | Z domain with S41V mutation Ig-binding affinity ligand (designed binder)
7 | 49 mg/mL | 56 mg/mL | 64 mg/mL | 76.5% | Z domain with S41V/N52V mutations Ig-binding affinity ligand (designed binder)
